From US20100233188A1 (YEDA RESEARCH AND DEVELOPMENT, published 2010)

T1: full length APMA activated MMP-2 (human) (human, UniProt P08253 110-660)
T1 construct: mature; Active enzyme lacking the pro domain; also called full length MMP2 purified from Hila cells; active MMP-2
T1 sequence (looked up): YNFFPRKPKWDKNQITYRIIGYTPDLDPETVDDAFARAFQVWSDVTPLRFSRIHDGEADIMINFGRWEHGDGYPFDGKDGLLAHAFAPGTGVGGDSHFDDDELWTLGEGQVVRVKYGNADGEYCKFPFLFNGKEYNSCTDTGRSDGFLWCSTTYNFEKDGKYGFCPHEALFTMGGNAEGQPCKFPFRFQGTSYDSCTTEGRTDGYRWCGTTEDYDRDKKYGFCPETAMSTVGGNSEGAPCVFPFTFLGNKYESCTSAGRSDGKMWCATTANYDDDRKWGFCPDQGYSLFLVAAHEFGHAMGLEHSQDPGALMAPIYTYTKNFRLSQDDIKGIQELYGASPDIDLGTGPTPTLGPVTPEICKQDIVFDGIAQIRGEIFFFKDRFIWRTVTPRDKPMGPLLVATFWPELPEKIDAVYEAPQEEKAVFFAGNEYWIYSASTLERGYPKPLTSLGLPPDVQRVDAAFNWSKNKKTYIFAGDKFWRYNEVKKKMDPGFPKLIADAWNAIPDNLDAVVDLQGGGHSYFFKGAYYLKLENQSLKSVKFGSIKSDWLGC

B1: 13E11 monoclonal antibody (anti CoTCPP mAb) (antibody, V domains shown)
VH: EGGGLVQPGGSRKLSCAASGFTFTSFGMHWVRQAPEKGLEWVAYISSGNEIIYYADTVKGRFTISRDNPKNTLFLQMTSLRSEDTAMYYCARNYYRYGFYVMDYWGQG
VL: EIVVTQSPAILSASPGEKVTMTCRASSSVSYMHWYQQKPGSSPKPWIYATSNELASGVPARFSGSGSGTSYSLTISRVEAEDAATYYCQQWISNPLTFGAG
B2: 6C6 monoclonal antibody (anti Imisdp mAb) (antibody, V domains shown)
VH: CGGGLVKPGGSLKLSCAASGFAFSTYDMETSWIRQTPEKRLEWVATISSGGSCYTYYPDSVKGRFTISKDNARNTLYLQMETSSLRSGDTALYYCTRFRYDGWYFDVWGQG
VL: CMETTQTPLSLPVSLGDQASISCRSSQSIVHSNGNTFLEWYLQKPGQSPKLLIYKVSNCRFSGVPDRFSGSGSGTDFTLKISRVEAEDLGVYYCFQASHVPPTFGGG

Key:
[1] = target: T2, full length APMA activated MMP-9 (human) (human, UniProt P14780 107-707); assay: enzyme kinetics with fluorogenic peptide substrate, Lineweaver-Burk plot, competitive inhibition; full length APMA activated MMP-9 (FIG. 4B)
T2 construct: mature; Active enzyme lacking the pro domain; also called active MMP-9 (full length)
T2 sequence (P14780 107-707): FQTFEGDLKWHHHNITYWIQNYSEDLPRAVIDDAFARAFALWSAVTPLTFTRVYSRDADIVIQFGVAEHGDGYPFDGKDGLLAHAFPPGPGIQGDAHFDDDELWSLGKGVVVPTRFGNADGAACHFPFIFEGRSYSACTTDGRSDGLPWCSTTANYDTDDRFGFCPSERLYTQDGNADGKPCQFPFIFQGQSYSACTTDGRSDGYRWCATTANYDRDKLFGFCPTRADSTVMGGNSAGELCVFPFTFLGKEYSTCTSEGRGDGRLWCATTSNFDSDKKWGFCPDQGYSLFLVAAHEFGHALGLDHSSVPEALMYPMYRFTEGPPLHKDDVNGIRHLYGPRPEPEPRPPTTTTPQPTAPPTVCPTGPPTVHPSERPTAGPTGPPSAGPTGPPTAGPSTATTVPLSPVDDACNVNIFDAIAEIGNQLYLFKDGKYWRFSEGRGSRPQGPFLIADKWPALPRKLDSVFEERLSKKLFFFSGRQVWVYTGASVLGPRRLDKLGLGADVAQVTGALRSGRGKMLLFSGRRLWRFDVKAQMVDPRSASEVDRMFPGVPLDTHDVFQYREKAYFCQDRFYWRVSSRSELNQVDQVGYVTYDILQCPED

[2] = target: T3, MMP-2 catalytic domain (MMP-2cat), amino acids 110-467 of GenBank NP-032636.1 (UniProt P33434 110-467); assay: enzyme kinetics with fluorogenic peptide substrate, Lineweaver-Burk plot, competitive inhibition; MMP-2cat (FIG. 4A)
T3 construct: range 110-467; also called MMP2 catalytic fragment; recombinant MMP-2 catalytic domain

[3] = target: TNF-alpha-converting enzyme (TACE, ADAM-17) (UniProt P78536 215-671, limits assumed); assay: cell-based or functional assay
Sequence of TNF-alpha-converting enzyme (TACE, ADAM-17) (P78536 215-671 limits assumed): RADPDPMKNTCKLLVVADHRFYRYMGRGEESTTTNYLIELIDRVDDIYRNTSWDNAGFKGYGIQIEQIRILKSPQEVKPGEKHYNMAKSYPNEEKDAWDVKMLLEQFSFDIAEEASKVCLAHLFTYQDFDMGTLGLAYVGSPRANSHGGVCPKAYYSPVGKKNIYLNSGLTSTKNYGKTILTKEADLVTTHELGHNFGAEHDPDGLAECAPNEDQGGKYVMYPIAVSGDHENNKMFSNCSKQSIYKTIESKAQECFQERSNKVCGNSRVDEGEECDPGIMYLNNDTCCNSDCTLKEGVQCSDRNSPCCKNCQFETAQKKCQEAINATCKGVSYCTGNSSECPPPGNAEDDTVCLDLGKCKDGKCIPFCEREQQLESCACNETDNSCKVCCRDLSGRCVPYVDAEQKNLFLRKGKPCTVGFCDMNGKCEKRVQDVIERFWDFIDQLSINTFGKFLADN

[4] = target: MMP-2 (active; construct not stated at that place) (Mus musculus (Mouse), UniProt P33434 110-467, catalytic and structural zinc and calcium ions are bound; the letters cannot show them); assay: cell-based or functional assay
[5] = target: T4, MT1-MMP (MMP-14) catalytic domain (UniProt P50281 112-284, limits assumed); assay: cell-based or functional assay
[6] = target: T4, MT1-MMP (MMP-14) catalytic domain; assay: inhibition of fluorogenic peptide cleavage, fit to competitive inhibition; catalytic domain of MT1-MMP (FIG. 12B)
[7] = target: T5, MMP-9 catalytic domain (recombinant catalytic fragment without the hemopexin and pro domain, APMA activated) (human, UniProt P14780 20-707); assay: inhibition of fluorogenic peptide cleavage, fit to competitive inhibition; MMP-9 recombinant catalytic fragment (FIG. 12A)
T5 construct: domain: catalytic fragment (without the hemopexin and pro domain); also called MMP-9 recombinant catalytic fragment; MMP9 catalytic fragment
T5 sequence (P14780 20-707): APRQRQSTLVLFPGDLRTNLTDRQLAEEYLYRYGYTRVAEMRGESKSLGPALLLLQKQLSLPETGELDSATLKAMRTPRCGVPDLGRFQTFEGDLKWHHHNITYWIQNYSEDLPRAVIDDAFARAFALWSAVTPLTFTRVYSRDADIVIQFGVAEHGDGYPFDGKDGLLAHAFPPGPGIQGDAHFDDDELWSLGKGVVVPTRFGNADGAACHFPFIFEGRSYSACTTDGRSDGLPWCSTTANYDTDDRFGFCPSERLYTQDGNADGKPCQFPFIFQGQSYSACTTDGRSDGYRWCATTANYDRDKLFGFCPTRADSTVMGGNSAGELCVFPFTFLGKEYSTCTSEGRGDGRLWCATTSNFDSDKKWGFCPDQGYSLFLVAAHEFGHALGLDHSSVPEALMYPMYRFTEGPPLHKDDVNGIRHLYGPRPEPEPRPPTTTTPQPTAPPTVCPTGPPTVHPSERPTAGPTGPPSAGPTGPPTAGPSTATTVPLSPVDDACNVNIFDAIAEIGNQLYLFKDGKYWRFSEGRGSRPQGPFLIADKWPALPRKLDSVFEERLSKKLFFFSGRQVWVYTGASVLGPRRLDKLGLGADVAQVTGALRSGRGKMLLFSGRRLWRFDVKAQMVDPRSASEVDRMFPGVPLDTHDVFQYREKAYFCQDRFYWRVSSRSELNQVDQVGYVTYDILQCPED

[8] = target: T5, MMP-9 catalytic domain (recombinant …); assay: inhibition of fluorogenic peptide cleavage, fit assuming competitive inhibition; MMP-9 catalytic domain (FIG. 5)
[9] = target: T4, MT1-MMP (MMP-14) catalytic domain; assay: in-vitro fluorescence enzymatic activity assay with peptide substrate
[10] = target: T1, full length APMA activated MMP-2 (human); assay: inhibition of fluorogenic peptide cleavage, fit assuming competitive inhibition; full length APMA activated MMP-2 (FIG. 5)
[11] = target: T1, full length APMA activated MMP-2 (human); assay: inhibition of fluorogenic peptide cleavage, fit to competitive inhibition; full length MMP2 purified from HeLa cells (FIG. 12B)

| Binder | Ki [1] [µM] | Ki [2] [µM] | IC50 µM, inhibition of fluorogenic peptide cleavage [3] [µM] | IC50 µM, inhibition of fluorogenic peptide cleavage [4] [µM] | IC50 µM, inhibition of fluorogenic peptide cleavage [5] [µM] | Ki [6] [µM] | Ki [7] [µM] | Ki [8] [µM] | Ki [9] [µM] | Ki [10] [µM] | Ki [11] [µM] |
| --- | --- | --- | --- | --- | --- | --- | --- | --- | --- | --- | --- |
| B1 | 13 | 24 | > 30 | 24 | > 30 |  |  |  |  |  |  |
| B2 |  |  | > 30 |  | 14.4 | 14.4 | 1 | 5.8 | 10 | 3 | 1.4 |
